Test results as given in paper PMC9482650, “Quantitative fragmentomics allow affinity mapping of interactomes” (Nature Communications, 2022).

Columns and labels:
Experiment in all cases: holdup assay
Details in all cases: plain residues with an end cap or a label only (N-terminal biotin on a linker: (peg)3)
[1] = target: AHNAK2, Q8IVF2
[2] = target: T1, CNKSR1, Q969H4
T1 sequence (Q969H4 191-295, limits assumed, looked up): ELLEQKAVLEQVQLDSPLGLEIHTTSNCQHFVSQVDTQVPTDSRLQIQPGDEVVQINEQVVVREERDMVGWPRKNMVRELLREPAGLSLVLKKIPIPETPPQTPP

[3] = target: CNKSR3, Q6P9H4
CNKSR3, Q6P9H4, sequence (Q6P9H4 203-303): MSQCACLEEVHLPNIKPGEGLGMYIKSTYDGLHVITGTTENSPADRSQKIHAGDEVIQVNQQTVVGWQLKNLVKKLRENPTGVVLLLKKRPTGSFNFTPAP

[4] = target: DVL2, O14641
DVL2, O14641, sequence (O14641 260-359): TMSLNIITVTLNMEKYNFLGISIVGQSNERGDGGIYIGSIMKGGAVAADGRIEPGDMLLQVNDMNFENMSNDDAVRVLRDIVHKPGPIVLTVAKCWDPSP

[5] = target: T2, GRIP1_1, Q9Y3R0
T2 sequence (Q9Y3R0 48-146, limits assumed, looked up): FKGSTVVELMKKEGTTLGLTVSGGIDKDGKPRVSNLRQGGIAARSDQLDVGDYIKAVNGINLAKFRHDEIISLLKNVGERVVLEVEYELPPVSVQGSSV

[6] = target: GRIP2_2, Q9C0E4
GRIP2_2, Q9C0E4, sequence (Q9C0E4 137-245): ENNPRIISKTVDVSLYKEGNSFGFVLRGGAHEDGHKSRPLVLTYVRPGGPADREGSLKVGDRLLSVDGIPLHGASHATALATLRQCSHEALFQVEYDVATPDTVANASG

[7] = target: LIMK1, P53667
LIMK1, P53667, sequence (P53667 155-268): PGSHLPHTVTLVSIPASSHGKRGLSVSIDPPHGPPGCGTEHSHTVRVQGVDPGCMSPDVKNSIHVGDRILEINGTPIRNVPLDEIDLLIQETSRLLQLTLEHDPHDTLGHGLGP

[8] = target: T3, LNX2_1, Q8N448
T3 sequence (Q8N448 228-328, limits assumed, looked up): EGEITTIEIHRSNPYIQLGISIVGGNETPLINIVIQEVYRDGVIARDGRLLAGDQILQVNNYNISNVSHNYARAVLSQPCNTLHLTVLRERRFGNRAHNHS

[9] = target: MAGI1_4, Q96QZ7
MAGI1_4, Q96QZ7, sequence (Q96QZ7 other isoform, or with tags, fused parts or gaps): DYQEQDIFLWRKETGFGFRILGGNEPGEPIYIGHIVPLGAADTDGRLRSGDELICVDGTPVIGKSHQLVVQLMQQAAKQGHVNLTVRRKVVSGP

[10] = target: T4, MPDZ_13, O75970
T4 sequence (O75970 1982-2070, limits assumed, looked up): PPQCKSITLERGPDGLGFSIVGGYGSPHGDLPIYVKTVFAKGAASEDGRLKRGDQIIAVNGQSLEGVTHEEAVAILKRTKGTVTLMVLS

[11] = target: T5, MPDZ_7, O75970
T5 sequence (O75970 1146-1253, limits assumed, looked up): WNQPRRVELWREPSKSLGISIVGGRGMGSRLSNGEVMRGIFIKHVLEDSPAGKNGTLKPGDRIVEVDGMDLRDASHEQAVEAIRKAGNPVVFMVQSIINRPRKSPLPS

[12] = target: PARD3B_2, Q8TEW8
PARD3B_2, Q8TEW8, sequence (Q8TEW8 376-471): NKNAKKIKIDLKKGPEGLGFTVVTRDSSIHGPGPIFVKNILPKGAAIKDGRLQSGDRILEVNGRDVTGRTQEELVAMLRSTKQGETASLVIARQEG

[13] = target: T6, PDLIM3, Q53GG5
T6 sequence (Q53GG5 1-94, limits assumed, looked up): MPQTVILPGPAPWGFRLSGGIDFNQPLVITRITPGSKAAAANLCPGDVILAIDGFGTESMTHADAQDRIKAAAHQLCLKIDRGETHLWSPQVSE

[14] = target: T7, PDZD2_1, O15018
T7 sequence (O15018 80-192, limits assumed, looked up): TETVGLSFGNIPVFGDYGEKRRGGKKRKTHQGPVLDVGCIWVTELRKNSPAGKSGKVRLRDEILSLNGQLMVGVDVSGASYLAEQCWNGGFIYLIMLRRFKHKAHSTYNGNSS

[15] = target: T8, PDZD4, Q76G19
T8 sequence (Q76G19 125-224, limits assumed, looked up): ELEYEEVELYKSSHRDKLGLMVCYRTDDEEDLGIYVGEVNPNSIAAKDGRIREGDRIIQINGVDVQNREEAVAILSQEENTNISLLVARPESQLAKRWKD

[16] = target: PDZRN4_2, Q6ZMN7
PDZRN4_2, Q6ZMN7, sequence (Q6ZMN7 389-498): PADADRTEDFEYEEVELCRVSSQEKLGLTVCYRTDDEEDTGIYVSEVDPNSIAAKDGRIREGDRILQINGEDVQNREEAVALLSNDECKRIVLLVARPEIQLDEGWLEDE

[17] = target: T9, PREX2_2, Q70Z35
T9 sequence (Q70Z35 672-764, limits assumed, looked up): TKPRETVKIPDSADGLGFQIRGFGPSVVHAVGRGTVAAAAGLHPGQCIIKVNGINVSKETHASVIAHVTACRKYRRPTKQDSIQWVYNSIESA

[18] = target: T10, RGS12, O14924
T10 sequence (O14924 17-108, limits assumed, looked up): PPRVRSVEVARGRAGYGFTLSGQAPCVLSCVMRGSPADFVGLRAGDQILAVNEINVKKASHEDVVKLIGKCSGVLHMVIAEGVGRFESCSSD

[19] = target: SCRIB_4, Q14160
SCRIB_4, Q14160, sequence (Q14160 1095-1204): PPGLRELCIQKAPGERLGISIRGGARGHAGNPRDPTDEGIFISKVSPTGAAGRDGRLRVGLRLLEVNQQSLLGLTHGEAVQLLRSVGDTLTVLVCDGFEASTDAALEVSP

[20] = target: T11, SHROOM3, Q8TF72
T11 sequence (Q8TF72 20-120, limits assumed, looked up): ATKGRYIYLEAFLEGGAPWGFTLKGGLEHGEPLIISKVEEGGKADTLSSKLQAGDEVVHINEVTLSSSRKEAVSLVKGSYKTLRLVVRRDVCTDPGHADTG

[21] = target: T12, SHROOM4, Q9ULL8
T12 sequence (Q9ULL8 5-102, limits assumed, looked up): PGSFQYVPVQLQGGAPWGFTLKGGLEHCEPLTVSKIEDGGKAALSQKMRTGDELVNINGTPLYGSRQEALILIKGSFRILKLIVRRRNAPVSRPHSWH

[22] = target: T13, TJP3_1, O95049
T13 sequence (O95049 6-103, limits assumed, looked up): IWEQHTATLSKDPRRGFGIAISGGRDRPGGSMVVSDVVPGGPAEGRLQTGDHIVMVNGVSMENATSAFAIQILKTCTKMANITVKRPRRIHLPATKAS

[23] = target: T14, USH1C_3, Q9Y6N9
T14 sequence (Q9Y6N9 447-547, limits assumed, looked up): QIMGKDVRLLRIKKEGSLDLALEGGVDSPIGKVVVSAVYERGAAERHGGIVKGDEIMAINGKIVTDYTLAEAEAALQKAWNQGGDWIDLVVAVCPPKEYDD

AHNAK2, Q8IVF2, sequence (Q8IVF2 108-193): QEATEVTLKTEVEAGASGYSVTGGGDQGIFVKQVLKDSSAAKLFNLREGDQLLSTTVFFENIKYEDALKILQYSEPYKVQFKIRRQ

With NLNSSEGVPDLLV [SARS-CoV-E, P59637] the pKd [1] was “below the threshold”, the pKd [2] was “below the threshold” and the pKd [3] was “below the threshold”. For the same binder, the pKd [4] was “below the threshold”, the pKd [5] was “below the threshold” and the pKd [6] was “below the threshold”. The pKd [7] was “below the threshold”, the pKd [8] was “below the threshold” and the pKd [9] was “below the threshold”. The pKd [10] was “below the threshold”, the pKd [11] was “below the threshold” and the pKd [12] was “below the threshold”. For the same binder, the pKd [13] was “below the threshold”, the pKd [14] was “below the threshold” and the pKd [15] was “below the threshold”. For the same binder, the pKd [16] was 4.05, the pKd [17] was “below the threshold” and the pKd [18] was “below the threshold”. For the same binder, the pKd [19] was “below the threshold”, the pKd [20] was “below the threshold” and the pKd [21] was “below the threshold”. For the same binder, the pKd [22] was “below the threshold” and the pKd [23] was “below the threshold”.
